Measurements published in patent US20240115603A1 (Zymeworks, published 2024).

Columns and labels:
Assay in all cases: co-expression in Tni insect cells, pulldown via Twin Strep tag on G-CSF, SDS-PAGE
[1] = biological target: T1, G-CSFR(CRH)E site II design 8 with N-terminal His tag (human)
T1 construct: also called design #8 G-CSFR(CRH)E
T1 chain: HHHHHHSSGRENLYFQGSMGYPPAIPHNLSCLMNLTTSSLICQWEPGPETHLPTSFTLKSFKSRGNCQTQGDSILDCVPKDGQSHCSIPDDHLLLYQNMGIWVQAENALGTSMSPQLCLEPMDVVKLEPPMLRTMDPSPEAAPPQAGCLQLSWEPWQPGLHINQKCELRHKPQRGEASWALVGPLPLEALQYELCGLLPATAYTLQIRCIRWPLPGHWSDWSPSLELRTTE

[2] = biological target: T2, G-CSFR(CRH)E site II design 9 with N-terminal His tag (human)
T2 construct: also called design #9 G-CSFR(CRH)E
T2 chain: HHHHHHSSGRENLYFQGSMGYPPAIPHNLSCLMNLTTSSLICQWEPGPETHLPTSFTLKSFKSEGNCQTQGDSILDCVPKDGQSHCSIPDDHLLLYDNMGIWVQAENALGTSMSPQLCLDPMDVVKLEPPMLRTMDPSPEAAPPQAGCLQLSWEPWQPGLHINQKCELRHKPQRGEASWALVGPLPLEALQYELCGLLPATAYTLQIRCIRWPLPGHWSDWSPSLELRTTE

[3] = biological target: T3, G-CSFR(CRH)E site II design 15 with N-terminal His tag (human)
T3 construct: also called design #15 G-CSFR(CRH)E
T3 chain: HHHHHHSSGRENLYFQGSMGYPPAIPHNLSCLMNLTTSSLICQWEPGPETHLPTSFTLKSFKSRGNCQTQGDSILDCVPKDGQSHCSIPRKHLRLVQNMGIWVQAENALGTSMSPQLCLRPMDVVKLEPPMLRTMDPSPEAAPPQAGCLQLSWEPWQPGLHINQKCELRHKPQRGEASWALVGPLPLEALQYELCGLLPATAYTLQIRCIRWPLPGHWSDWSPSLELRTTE

[4] = biological target: T4, G-CSFR(CRH)E site II design 30 with N-terminal His tag (human, UniProt Q99062 120-331)
T4 construct: also called design #30 G-CSFR(CRH)E
T4 chain: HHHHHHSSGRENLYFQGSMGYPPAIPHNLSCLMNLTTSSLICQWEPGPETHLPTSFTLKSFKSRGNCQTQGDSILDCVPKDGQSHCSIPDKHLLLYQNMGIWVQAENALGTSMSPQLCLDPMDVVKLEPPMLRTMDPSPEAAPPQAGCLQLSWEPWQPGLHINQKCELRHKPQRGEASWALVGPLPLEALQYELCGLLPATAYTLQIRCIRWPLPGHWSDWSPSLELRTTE

[5] = biological target: T5, G-CSFR(CRH)E site II design 34 with N-terminal His tag (human, UniProt Q99062 120-331)
T5 construct: also called design #34 G-CSFR(CRH)E
T5 chain: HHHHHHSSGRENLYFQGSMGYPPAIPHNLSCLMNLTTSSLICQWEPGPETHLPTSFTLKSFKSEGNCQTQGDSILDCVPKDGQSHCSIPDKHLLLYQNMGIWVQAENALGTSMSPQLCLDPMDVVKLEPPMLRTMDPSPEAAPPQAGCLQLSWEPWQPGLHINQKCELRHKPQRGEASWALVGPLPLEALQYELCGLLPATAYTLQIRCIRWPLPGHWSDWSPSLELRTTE

[6] = biological target: T6, G-CSFR(CRH)E site II design 35 with N-terminal His tag (human)
T6 construct: also called design #35 G-CSFR(CRH)E
T6 chain: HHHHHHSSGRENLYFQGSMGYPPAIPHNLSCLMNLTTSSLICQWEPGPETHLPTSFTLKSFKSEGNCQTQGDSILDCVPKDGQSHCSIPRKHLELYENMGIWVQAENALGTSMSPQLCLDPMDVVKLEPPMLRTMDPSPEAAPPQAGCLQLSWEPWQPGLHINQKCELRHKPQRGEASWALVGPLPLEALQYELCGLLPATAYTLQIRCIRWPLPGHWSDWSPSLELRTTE

[7] = biological target: T7, G-CSFR(Ig-CRH)E combination design 401 with N-terminal His tag (human, UniProt Q99062 25-331)
T7 construct: also called design 401 engineered receptor
T7 chain: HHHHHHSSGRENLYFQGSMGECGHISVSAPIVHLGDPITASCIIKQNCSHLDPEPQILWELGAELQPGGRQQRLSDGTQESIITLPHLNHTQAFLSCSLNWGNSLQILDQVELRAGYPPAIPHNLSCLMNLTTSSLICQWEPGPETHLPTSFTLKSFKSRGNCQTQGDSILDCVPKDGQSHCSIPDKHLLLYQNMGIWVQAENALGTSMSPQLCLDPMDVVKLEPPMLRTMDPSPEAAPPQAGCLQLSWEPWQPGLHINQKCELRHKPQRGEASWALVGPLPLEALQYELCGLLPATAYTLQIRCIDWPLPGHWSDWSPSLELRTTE

[8] = biological target: T8, G-CSFR(Ig-CRH)E combination design 402 with N-terminal His tag (human, UniProt Q99062 25-331)
T8 construct: also called design 402 engineered receptor
T8 chain: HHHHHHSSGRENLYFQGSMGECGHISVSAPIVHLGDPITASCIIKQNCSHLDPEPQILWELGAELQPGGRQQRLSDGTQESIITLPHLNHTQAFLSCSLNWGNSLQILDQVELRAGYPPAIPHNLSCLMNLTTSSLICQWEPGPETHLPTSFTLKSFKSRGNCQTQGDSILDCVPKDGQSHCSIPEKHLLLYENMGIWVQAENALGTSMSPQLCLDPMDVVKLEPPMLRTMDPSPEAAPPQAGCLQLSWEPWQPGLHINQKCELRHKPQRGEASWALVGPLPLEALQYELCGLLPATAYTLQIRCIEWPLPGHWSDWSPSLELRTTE

Measured: binding result

B1: WT G-CSF with C-terminal Twin Strep tag (ligand)
chain: not shown
notes: also called G-CSFWT
no binding: all assays above
